The target of assay [1] is FLT3 receptor in adult mouse DRG sensory neurons (mouse) (UniProt Q00342). Description: cell-based or functional assay.
Assay [2] deals with T1, SNAP tagged mouse FLT3, full-length, expressed in HEK293T cells (mouse, UniProt Q00342 28-1000, SNAP tag covalently labelled with SNAP-Lumi4-Tb).
T1 construct: whole, on cells; Transiently transfected HEK293T cells; also called full-length mFLT3; mFLT3; not shown: SNAP tag (plasmid from Cisbio Bioassays)
T1 sequence (looked up): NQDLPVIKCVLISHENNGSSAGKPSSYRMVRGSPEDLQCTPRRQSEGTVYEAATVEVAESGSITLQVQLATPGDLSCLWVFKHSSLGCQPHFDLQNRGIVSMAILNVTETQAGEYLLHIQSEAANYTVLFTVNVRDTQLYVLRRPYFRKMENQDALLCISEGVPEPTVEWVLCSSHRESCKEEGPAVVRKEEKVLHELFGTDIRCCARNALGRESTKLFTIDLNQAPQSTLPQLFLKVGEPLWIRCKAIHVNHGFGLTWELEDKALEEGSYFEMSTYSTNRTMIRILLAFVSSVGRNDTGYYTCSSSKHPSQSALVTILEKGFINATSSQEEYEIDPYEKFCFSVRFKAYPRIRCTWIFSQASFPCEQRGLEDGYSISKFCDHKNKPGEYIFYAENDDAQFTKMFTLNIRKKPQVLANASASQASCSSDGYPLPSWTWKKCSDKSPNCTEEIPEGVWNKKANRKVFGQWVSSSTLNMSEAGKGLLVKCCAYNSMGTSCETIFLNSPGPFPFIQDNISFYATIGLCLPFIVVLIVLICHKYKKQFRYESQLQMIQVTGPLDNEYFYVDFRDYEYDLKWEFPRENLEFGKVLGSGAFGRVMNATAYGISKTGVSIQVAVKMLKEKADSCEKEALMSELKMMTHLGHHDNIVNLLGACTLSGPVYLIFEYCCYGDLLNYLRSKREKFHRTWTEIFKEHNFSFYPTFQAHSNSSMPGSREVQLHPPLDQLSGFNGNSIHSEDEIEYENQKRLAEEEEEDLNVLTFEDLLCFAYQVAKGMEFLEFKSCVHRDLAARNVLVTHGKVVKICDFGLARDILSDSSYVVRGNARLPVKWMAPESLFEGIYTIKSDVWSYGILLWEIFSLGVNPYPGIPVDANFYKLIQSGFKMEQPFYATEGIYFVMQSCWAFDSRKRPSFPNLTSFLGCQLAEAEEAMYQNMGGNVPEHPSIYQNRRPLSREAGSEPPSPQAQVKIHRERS
As to the kind of experiment: TR-FRET displacement of 0.5 nM Red-FL on HEK293T cells expressing SNAP tagged full-length mFLT3. The method, then:
(§1) TR-FRET binding assays. TR-FRET binding assays were performed 24 h after transfection on fresh cells. When using frozen cells, binding assays were carried out immediately after cells thawing. When the assay was carried out on adherent cells in 96-well plates, the cell density was 50,000 cells per well, while a density of 10,000 cells per well was used to carry out binding assays in suspension in 384-well small volume plates.
(§2) Cells were incubated with 0.5 nM Red-FL in the presence of increasing concentrations of the antibody. In the plates containing labelled cells, 50 μl of Tag-lite® labelling medium, 25 μl of compounds to be tested were added and incubated for 1 h at room temperature prior to the addition of 25 μl of Red-FL. Plates were then incubated at room temperature for 4 h or overnight before signal detection.
(§3) Signal detection. Signal was detected using an advanced fluorescence microplate reader (RUBYstar, BMG Labtech) equipped with a HTRF optic module allowing a donor excitation at 337 nm and a signal collection both at 665 nm and 620 nm. A frequency of 20 flashes/well is selected for the laser excitation. […] Results were expressed as percentage of signal measured in the presence of Red-FL alone, corrected for non-specific binding measured in the presence of […].
Background: Time-resolved FRET reads energy transfer from a long-lived donor to a nearby acceptor.

Assay [3] addresses T2, SNAP tagged human FLT3, full-length, expressed in HEK293T cells (human, UniProt P36888 27-993, SNAP tag covalently labelled with SNAP-Lumi4-Tb).
T2 construct: whole, on cells; Transiently transfected HEK293T cells; also called full-length hFLT3; hFLT3; not shown: SNAP tag (plasmid from Cisbio Bioassays)
T2 sequence (looked up): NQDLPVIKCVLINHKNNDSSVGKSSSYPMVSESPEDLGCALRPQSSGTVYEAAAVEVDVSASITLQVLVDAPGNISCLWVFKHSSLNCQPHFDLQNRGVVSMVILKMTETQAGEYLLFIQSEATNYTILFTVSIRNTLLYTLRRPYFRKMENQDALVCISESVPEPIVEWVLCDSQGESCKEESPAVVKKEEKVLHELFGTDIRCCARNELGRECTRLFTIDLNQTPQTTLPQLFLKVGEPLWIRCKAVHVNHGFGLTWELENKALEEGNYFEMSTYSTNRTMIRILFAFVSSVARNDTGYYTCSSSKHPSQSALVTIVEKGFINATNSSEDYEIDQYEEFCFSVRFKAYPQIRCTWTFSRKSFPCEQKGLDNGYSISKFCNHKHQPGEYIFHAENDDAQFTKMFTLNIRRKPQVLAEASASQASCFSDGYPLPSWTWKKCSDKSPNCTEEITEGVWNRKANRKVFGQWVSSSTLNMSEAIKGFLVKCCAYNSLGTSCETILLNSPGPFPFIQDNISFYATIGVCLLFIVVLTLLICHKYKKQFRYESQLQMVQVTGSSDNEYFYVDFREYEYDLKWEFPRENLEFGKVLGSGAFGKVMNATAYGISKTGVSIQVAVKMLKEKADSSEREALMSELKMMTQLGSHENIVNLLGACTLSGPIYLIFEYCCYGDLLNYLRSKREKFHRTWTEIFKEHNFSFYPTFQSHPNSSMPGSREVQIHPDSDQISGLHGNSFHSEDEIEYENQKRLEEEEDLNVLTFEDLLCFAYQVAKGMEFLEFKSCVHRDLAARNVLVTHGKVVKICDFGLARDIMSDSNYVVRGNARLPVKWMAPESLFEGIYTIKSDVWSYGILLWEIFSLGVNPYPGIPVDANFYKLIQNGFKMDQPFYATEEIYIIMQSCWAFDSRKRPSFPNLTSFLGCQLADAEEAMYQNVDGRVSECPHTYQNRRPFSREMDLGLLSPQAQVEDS
Description: TR-FRET displacement of 0.5 nM Red-FL on HEK293T cells expressing SNAP tagged full-length hFLT3. The method, then:
as §1, §2, §3

A word on the IC50: it is the concentration at which inhibition is half-maximal. Read a high IC50 as weaker potency.

Regarding FL (FLT3-Ligand, from ABCYS SA), in assay [1], the mean fold increase in TRPV1 response, ΔFarea was 512%; the mean fold increase in TRPV1 response, ΔFpeak worked out at 212%; the potentiation of the capsaicin response ([Ca2+]i, Fura-2) in DRG neurons: share of capsaicin-responding cells potentiated amounted to 56%.

B1: A3 antibody (human monoclonal antibody against FLT3) (antibody, V domains shown)
VH: EVQLVESGGSLVKPGGSLRLSCAASGFTFSNSYMNWVRQAPGKGLEWISDISGSSRDIDYADFVKGRFTISRDNATNSLYLQMNSLRAEDTAVYYCVRSGNSGMDVWGRGTLVTVSS
VL: QSVLTQPASVSGSPGQSITISCAGTSSDVGGGYYVSWYQQHPGKAPKLMIYYDSYRPSGVSNRFSGSKSGNTASLTISGLQAEDEADYYCSSYTNNSTRVFGGGTKLEIK
notes: also called antibody A3; anti-FLT3 A3 antibody
Take B1: the half-maximal inhibitory concentration (IC50) in assay [2] and in assay [3] was approximately 17 µg/mL each time.

(Values after patent US20190002888A1 (INSTITUT NATIONAL DE LA SANTE ET DE LA RECHERCHE MEDICALE …, published 2019).)
